As a reminder, the koff is a measure of how fast the partners let go of each other. The kon is the rate constant with which the complex forms.

The target in assay [1] is T1, human TfR ectodomain fused to a mouse IgG1 Fc fragment (human, UniProt P02786 89-760).
T1 construct: extracellular domain; ectodomain fused to the N-terminal end of the Fc, made in-house; not shown: mouse IgG1 Fc fragment
The experiment in a line: SPR, kinetic. The procedure: (§1) Binding properties of some VHHs were also evaluated using Surface Plasmon Resonance (SPR) experiments. The human, mouse and rhesus monkey TfR (having respectively GeneBank number NM_003234.2, NM_011638, NC_041755.1) ectodomains were fused to the N-terminal end of a mouse IgG1 Fc fragment and the recombinant proteins were produced and purified in-house. Interaction of VHHs with the receptors was tested using a Biacore T200 (GE Healthcare). Receptors were immobilized on an HC 1500M or a CM5 sensor chip (Xantec) either directly or on an anti-mouse IgG previously immobilized. VHHs were injected over flowcell by using the single-cycle kinetic or the multiple-cycle kinetic methods.
In general terms: SPR reads the build-up and loss of mass on a sensor chip optically.

Assay [2] concerns the target T2, mouse TfR ectodomain fused to a mouse IgG1 Fc fragment (mouse, UniProt Q62351 89-763).
T2 construct: extracellular domain; not shown: mouse IgG1 Fc fragment
The experiment in a line: SPR, kinetic. Here is the method:
as §1

The target of assay [3] is T3, mouse transferrin receptor (mTfR) fused to EGFP, on CHO cells (mouse, UniProt Q62351 1-763).
T3 construct: whole, on cells; also called mouse TfR; CHO-mTfR-EGFP; not shown: EGFP
The experiment in a line: apparent Kd, flow cytometry, CHO cells. Here is the method: (§2) The binding properties of VHHs with affinity for the TfR from different species (i.e., human (h), mouse (m) and rhesus monkey (rh)) were tested using flow cytometry, and apparent affinities (Kd app) were determined. All experiments were performed in 96 well plates using 2×10⁵ cells/well, at 4° C. with shaking. CHO cell lines expressing the hTfR, mTfR or rhTfR fused to EGFP were saturated with PBS/BSA 2% solution during 30 min to avoid nonspecific binding, followed by incubation with purified VHHs at increasing concentrations for 1 hr. After one wash in PBS/BSA 2%, cells were incubated for 1 hr with an anti-6His tag antibody (mouse), washed twice with PBS/BSA 2%, and incubated for 1 hr with an Alexa647-conjugated anti-mouse secondary antibody. After two last washes in PBS/BSA 2%, cells were fixed by incubation for 15 min with PBS/PFA 2%, washed once with PBS and finally resuspended in PBS. Fluorescence levels were assessed using an Attune NxT flow cytometer (Thermo Fisher Scientific). Experimental data were fitted with GraphPad Prism® software using a nonlinear fit to determine the apparent Kd constants. […] Table 5 hereafter summarizes apparent Kd obtained for the tested VHHs.
In general terms: A flow cytometer gives signals particle by particle.

Assay [4] deals with T4, human transferrin receptor (hTfR) fused to EGFP, on CHO cells (human, UniProt P02786 1-760).
T4 construct: whole, on cells; also called human TfR; CHO-hTfR-EGFP; not shown: EGFP from pEGFP-C1 vector, fused to the N-terminal (intracellular) end of hTfR
The experiment in a line: apparent Kd, flow cytometry, CHO cells. Here is the method: as §2

The target of assay [5] is T5, rhesus monkey transferrin receptor (rhTfR) fused to EGFP, on CHO cells (rhesus monkey).
T5 construct: whole, on cells; also called rhesus monkey TfR
Briefly: apparent Kd, flow cytometry, CHO cells. The procedure: as §2

The target of assay [6] is T6, rhesus monkey TfR ectodomain fused to a mouse IgG1 Fc fragment (rhesus monkey, UniProt I0FKY7 89-760).
T6 construct: extracellular domain; not shown: mouse IgG1 Fc fragment
The experiment in a line: SPR, at equilibrium. Here is the method: as §1

The target in assay [7] is T1, human TfR ectodomain fused to a mouse …. Briefly: SPR, at equilibrium. The procedure: as §1
For assay [8], the target named is T6, rhesus monkey TfR ectodomain fused to a …. The experiment in a line: SPR, kinetic. The procedure:
as §1

T3 sequence (Q62351 whole entry, the tested form may be a part): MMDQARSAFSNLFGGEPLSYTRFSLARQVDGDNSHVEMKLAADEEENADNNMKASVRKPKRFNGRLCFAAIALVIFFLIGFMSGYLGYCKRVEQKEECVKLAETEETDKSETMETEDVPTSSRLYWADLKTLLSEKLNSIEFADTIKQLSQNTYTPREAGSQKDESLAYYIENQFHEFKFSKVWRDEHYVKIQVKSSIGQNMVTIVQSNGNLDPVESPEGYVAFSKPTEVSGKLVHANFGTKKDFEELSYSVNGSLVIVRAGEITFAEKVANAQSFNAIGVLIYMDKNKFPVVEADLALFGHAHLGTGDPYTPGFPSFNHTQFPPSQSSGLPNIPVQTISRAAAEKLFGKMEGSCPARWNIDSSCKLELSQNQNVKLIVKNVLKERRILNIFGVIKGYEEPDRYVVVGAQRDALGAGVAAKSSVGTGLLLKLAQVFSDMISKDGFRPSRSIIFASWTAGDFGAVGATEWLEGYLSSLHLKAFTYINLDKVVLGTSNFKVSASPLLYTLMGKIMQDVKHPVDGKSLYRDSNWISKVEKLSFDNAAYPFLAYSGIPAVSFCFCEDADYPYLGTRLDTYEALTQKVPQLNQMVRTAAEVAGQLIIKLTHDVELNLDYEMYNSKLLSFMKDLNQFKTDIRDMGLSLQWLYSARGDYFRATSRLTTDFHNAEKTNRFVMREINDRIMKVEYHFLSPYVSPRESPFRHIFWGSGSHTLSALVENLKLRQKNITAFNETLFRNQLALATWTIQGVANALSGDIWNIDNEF
T4 sequence (P02786 whole entry, the tested form may be a part): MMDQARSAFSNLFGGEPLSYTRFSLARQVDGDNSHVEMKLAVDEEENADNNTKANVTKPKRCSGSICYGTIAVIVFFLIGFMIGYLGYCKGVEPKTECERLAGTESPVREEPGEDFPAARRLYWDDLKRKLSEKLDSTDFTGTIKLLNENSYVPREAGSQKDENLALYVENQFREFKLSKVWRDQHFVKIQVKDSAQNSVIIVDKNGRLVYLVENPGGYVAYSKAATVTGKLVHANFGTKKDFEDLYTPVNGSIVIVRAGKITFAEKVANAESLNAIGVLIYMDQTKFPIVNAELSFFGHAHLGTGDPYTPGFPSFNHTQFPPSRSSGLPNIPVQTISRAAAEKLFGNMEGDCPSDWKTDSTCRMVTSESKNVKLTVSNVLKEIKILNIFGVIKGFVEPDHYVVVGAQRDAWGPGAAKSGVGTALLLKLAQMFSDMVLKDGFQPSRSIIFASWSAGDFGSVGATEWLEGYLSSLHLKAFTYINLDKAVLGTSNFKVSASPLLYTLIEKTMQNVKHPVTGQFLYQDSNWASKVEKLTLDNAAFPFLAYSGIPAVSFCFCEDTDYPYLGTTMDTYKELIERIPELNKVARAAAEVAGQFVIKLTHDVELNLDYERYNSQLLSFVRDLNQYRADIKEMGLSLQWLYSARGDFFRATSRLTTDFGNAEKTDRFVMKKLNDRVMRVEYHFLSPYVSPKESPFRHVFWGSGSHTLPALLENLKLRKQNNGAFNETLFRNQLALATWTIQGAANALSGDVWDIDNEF
T2 sequence (Q62351 89-763): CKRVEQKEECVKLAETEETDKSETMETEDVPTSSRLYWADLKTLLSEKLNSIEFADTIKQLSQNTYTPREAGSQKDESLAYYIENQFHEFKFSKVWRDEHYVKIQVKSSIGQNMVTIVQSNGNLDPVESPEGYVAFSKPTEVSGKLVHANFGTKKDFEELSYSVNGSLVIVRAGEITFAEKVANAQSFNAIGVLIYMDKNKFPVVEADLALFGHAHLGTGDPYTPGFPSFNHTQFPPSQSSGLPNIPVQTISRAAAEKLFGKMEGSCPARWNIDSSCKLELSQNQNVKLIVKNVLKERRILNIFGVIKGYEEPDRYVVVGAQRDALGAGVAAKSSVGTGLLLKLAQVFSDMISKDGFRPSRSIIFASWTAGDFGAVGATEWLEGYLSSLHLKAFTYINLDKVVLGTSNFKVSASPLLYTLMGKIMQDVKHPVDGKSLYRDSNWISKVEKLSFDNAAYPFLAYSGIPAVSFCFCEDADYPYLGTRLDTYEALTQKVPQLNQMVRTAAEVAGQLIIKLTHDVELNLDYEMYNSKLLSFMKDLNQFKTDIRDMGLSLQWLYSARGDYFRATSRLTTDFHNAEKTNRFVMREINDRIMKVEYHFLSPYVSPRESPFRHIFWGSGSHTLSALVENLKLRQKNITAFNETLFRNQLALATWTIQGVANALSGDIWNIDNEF
T1 sequence (P02786 89-760): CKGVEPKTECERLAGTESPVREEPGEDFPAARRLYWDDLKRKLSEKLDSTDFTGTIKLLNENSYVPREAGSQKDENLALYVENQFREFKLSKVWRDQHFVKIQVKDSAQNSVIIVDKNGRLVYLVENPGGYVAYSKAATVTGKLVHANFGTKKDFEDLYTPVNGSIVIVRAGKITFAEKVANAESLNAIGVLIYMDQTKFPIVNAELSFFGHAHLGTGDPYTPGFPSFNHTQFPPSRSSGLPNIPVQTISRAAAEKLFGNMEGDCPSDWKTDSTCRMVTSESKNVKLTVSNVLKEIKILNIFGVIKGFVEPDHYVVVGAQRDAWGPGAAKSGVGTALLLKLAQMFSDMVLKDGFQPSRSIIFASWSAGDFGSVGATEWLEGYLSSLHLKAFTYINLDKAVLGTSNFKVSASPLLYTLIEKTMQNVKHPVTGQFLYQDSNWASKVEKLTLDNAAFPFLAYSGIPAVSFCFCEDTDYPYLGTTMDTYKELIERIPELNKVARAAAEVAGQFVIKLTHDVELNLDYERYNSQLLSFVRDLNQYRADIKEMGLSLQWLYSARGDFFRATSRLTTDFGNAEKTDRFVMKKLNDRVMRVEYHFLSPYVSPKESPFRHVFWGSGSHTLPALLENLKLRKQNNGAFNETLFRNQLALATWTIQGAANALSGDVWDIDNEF

B1: B8^V1 (VHH)
VHH: EVQLVESGGGVVQPGGSLRLSCAADGEIFSINFMRWYRQAPGKQREWVAGFTRDGSTNYPDSAKGRFTISRDNAKNTVYLQIDSLKPEDTAVYYCYMLDTWGQGTQVTVSS
Take B1: the Kd in assay [1] stood at 6.04 nM; in assay [2], 1960 nM; in assay [3] it was 313 nM; in assay [4] it was 192 nM; in assay [5], 138 nM. The koff in assay [1] worked out at 0.0011 s⁻¹; in assay [2], 0.0125 s⁻¹. Also, the kon turned out to be 183000 M⁻¹ s⁻¹ in assay [1] and 6510 M⁻¹ s⁻¹ in assay [2].

B2: B8^V36 (VHH)
VHH: EVQLVESGGGVVQPGGSLRLSCAASGEIFSINVMRWYRQAPGKQREWVAGFTRDGSTNYPDSAKGRFTISRDNAKNTVYLQIDSLKPEDTAVYYCYMLDTWGQGTQVTVSS
Take B2: the Kd worked out at 33.3 nM in assay [1]; 891 nM in assay [3]; 27 nM in assay [4]; 130 nM in assay [5]; 206 nM in assay [6]; 39.2 nM in assay [7]. In assay [1], the koff was determined as 0.019 s⁻¹. The molecule further registered a kon in assay [1] of 571000 M⁻¹ s⁻¹.

B3: B8^V12 (VHH)
VHH: EVQLVESGGGVVQPGGSLRLSCAASGEIFYINFMRWYRQAPGKQREWVAGFTRDGSTNYPDSAKGRFTISRDNAKNTVYLQIDSLKPEDTAVYYCYMLDTWGQGTQVTVSS
For B3, the Kd stood at 12.1 nM in assay [8]; 0.984 nM in assay [1]; 743 nM in assay [3]; 4.7 nM in assay [4]; 6.9 nM in assay [5]; 25.1 nM in assay [6]. The koff in assay [8] turned out to be 0.0119 s⁻¹; in assay [1], 0.00169 s⁻¹. The on-rate constant (kon) in assay [8] was 997000 M⁻¹ s⁻¹; in assay [1], 1.04e+06 M⁻¹ s⁻¹.

B4: C5^V16h20 (VHH)
VHH: EVQLVESGGGVVQPGGSLRLSCAASGTDFSINFIRWYRQAPGKGLEFVAGFTATGNTNYADSVKGRFTISRDNAKNAVYLQMNSLRPEDTAVYYCYILDKWGQGTQVTVSS
On to B4, for which the Kd in assay [1] is 112 nM; in assay [2], 301 nM; in assay [3], 622 nM; in assay [4], 23 nM; in assay [5] it was 793 nM; in assay [7], 115 nM. The koff in assay [1] amounted to 0.0399 s⁻¹; in assay [2], 0.075 s⁻¹. The values for the kon in assay [1] and in assay [2] were 360000 M⁻¹ s⁻¹ and 251000 M⁻¹ s⁻¹, respectively.

B5: C5^h9 (VHH)
VHH: EVQLVESGGGVVQPGGSLRLSCAASGTDFSINFIRWYRQAPGKGLEFVAGFTATGNTNYADSVKGRFTISRDNAKNTLYLQMNSLRPEDTAVYYCYMLDKWGQGTQVTVSS
B5: the Kd in assay [1] came to 10.6 nM; in assay [3] it was 431 nM; in assay [4], 6.1 nM; in assay [5], 493 nM. This molecule also had a koff in assay [1] of 0.00582 s⁻¹. This molecule came in with an on-rate (kon) in assay [1] of 549000 M⁻¹ s⁻¹.

B6: C5^h20 (VHH)
VHH: EVQLVESGGGVVQPGGSLRLSCAASGTDFSINFIRWYRQAPGKGLEFVAGFTATGNTNYADSVKGRFTISRDNAKNAVYLQMNSLRPEDTAVYYCYMLDKWGQGTQVTVSS
With B6, the Kd in assay [1] was 0.985 nM; in assay [3], 22 nM; in assay [4], 4.1 nM; in assay [5], 40 nM. Besides, the koff in assay [1] worked out at 0.00105 s⁻¹. In addition, the kon in assay [1] was determined as 866000 M⁻¹ s⁻¹.

B7: C5^V30 (VHH)
VHH: EVQLVESGGGVVQPGGSLKLSCVASGTDKSINFIRWYRQAPGKQREFVAGFTATGNTNYADSMKGRFTISRDNTKNAVYLQIDSLKPEDTAVYYCYMLDKWGQGTQVTVSS
In the case of B7, the Kd in assay [8] was 373 nM; in assay [1], 94 nM; in assay [3] it was 696 nM; in assay [4], 31 nM; in assay [5] it was 362 nM; in assay [6] it was 339 nM. Besides, the Kd in assay [7] was found to be 112 nM. For the same molecule, the dissociation rate constant (koff) was 0.192 s⁻¹ in assay [8] and 0.03 s⁻¹ in assay [1]. Further, the on-rate (kon) stood at 515000 M⁻¹ s⁻¹ in assay [8] and 319000 M⁻¹ s⁻¹ in assay [1].

B8: VHH A18 (C5^V18) (VHH)
VHH: EVQLVESGGGVVQPGGSLKLSCVASGTDFSINFIRWYRQAPGKQREFVAGFTATGNTNYADSMKGRFTISRDNTKNAVYLQIDSLKPEDTAVYYCYMVDKWGQGTQVTVSS
Regarding B8, the Kd in assay [1] is 43.3 nM; in assay [3], 416 nM; in assay [4] it was 12 nM; in assay [5], 481 nM; in assay [7], 37.8 nM. The molecule further displayed a koff in assay [1] of 0.021 s⁻¹. In assay [1], this molecule returned a kon of 487000 M⁻¹ s⁻¹.

B9: VHH D (H3) (VHH)
VHH: EVQLVESGGGEVQPGGSLKLSCVASGTDFSINFVRWYRQRPGKQREWVAGFTANGDTNYPDSMKGRFTISRDNAKNTVYLQINSLKSEDTAVYYCYMLDNWGQGTQVTVSS
With B9, the Kd in assay [1] worked out at 0.0333 nM; in assay [2] it was 15.6 nM; in assay [3], 56 nM; in assay [4], 1.9 nM; in assay [5], 1.5 nM. Also, the koff in assay [1] was 3.3e-05 s⁻¹; in assay [2], 0.00909 s⁻¹. The figures for the association rate constant (kon) in assay [1] and in assay [2] were 1.01e+06 M⁻¹ s⁻¹ and 581000 M⁻¹ s⁻¹, respectively.

B10: C5^h25 (VHH)
VHH: EVQLVESGGGVVQPGGSLRLSCAASGTDFSINFIRWVRQAPGKGLEFVAGFTATGNTNYADSVKGRFTISRDNAKNTLYLQIDSLRPEDTAVYYCYMLDKWGQGTQVTVSS
For B10, the results for the Kd in assay [3], in assay [4] and in assay [7] were 755 nM, 777 nM and 1550 nM, respectively.

B11: VHH A16 (C5^V16) (VHH)
VHH: EVQLVESGGGVVQPGGSLKLSCVASGTDFSINFIRWYRQAPGKQREFVAGFTATGNTNYADSMKGRFTISRDNTKNAVYLQIDSLKPEDTAVYYCYILDKWGQGTQVTVSS
Take B11: the Kd in assay [1] is 14.5 nM; in assay [3] it was 131 nM; in assay [4], 4.7 nM; in assay [5], 425 nM. For the same molecule, the koff in assay [1] turned out to be 0.00577 s⁻¹. Further, the kon in assay [1] worked out at 459000 M⁻¹ s⁻¹.

B12: C5^h22 (VHH)
VHH: EVQLVESGGGVVQPGGSLRLSCAASGTDFSINFIRWYRQAPGKGREFVAGFTATGNTNYADSVKGRFTISRDNAKNTLYLQMNSLRPEDTAVYYCYMLDKWGQGTQVTVSS
As for B12, the Kd in assay [1] was 8.96 nM; in assay [3] it was 602 nM; in assay [4], 4.9 nM; in assay [5], 755 nM. The molecule also displayed a koff in assay [1] of 0.00906 s⁻¹. For the same molecule, the kon in assay [1] came to 1.5e+06 M⁻¹ s⁻¹.

B13: C5^V31 (VHH)
VHH: EVQLVESGGGVVQPGGSLKLSCVASGTDRSINFIRWYRQAPGKQREFVAGFTATGNTNYADSMKGRFTISRDNTKNAVYLQIDSLKPEDTAVYYCYMLDKWGQGTQVTVSS
With B13, the Kd was determined as 234 nM in assay [8]; 47.5 nM in assay [1]; 445 nM in assay [3]; 11 nM in assay [4]; 256 nM in assay [5]; 242 nM in assay [6]. In assay [7], this molecule showed a Kd of 64.8 nM. The koff in assay [8] was determined as 0.123 s⁻¹; in assay [1], 0.0182 s⁻¹. Further, the values for the kon in assay [8] and in assay [1] were 524000 M⁻¹ s⁻¹ and 383000 M⁻¹ s⁻¹, respectively.

B14: VHH A8 (C5^V8) (VHH)
VHH: EVQLVESGGGVVQPGGSLKLSCVASGTDFSINFIRWYRQAPGKQREFVAGFTATGNTNYADSMKGRFTISRDNTKNAVYLQIDSLKPEDTAVYYCYMLAKWGQGTQVTVSS
As for B14, the Kd in assay [1] turned out to be 94.8 nM; in assay [3] it was 427 nM; in assay [4] it was 23 nM; in assay [5], 494 nM; in assay [7], 84.3 nM. Also, the koff in assay [1] is 0.0558 s⁻¹. Further, in assay [1], the kon was 504000 M⁻¹ s⁻¹.

For the origin of these results see patent publication US20230414780A1 (VECT HORUS, published 2023).
